Source: patent US20080305123A1
“And” between values parts separate entries of the source, which are not always exact repeats. Equal values may be shown once.

What was measured:
[1] = target: PsaA receptor on Detroit 562 human nasopharyngeal epithelial cells (human); assay: competition of PsaA-coated bead adherence to Detroit 562 cells by P4 in solution (second of the three doses, printed 100 µg)
[2] = target: PsaA receptor on Detroit 562 human nasopharyngeal epithelial cells (human); assay: coated fluospheres at 1:50 dilution on Detroit 562 cells
[3] = target: PsaA receptor on Detroit 562 human nasopharyngeal epithelial cells (human); assay: coated fluorospheres on Detroit 562 cells, 1640±210 beads/well
[4] = target: PsaA receptor on Detroit 562 human nasopharyngeal epithelial cells (human); assay: competitor P4 in solution against P4-coated beads on Detroit 562 cells
[5] = target: PsaA receptor on Detroit 562 human nasopharyngeal epithelial cells (human); assay: competition of PsaA-coated bead adherence to Detroit 562 cells by P4 in solution
[6] = target: PsaA receptor on Detroit 562 human nasopharyngeal epithelial cells (human); assay: homologous competitor P4 in solution against P4-coated fluospheres on Detroit 562 cells
[7] = target: PsaA receptor on Detroit 562 human nasopharyngeal epithelial cells (human); assay: time course on Detroit 562 cells, n=6, 140 min
[8] = target: PsaA receptor on Detroit 562 human nasopharyngeal epithelial cells (human); assay: time course on Detroit 562 cells, n=6, 20 min
[9] = target: PsaA receptor on Detroit 562 human nasopharyngeal epithelial cells (human); assay: cold chase with non-fluorescent PsaA-coated spheres against PsaA-coated fluospheres on Detroit 562 cells
[10] = target: PsaA receptor on Detroit 562 human nasopharyngeal epithelial cells (human); assay: adherence of unsaturated rPsaA fluospheres to Detroit 562 cells with P3 peptide added
[11] = target: PsaA receptor on Detroit 562 human nasopharyngeal epithelial cells (human); assay: time course on Detroit 562 cells, n=6, 180 min
[12] = target: PsaA receptor on Detroit 562 human nasopharyngeal epithelial cells (human); assay: 2,600 fluospheres/well on Detroit 562 cells, day 60 after labeling
[13] = target: PsaA receptor on Detroit 562 human nasopharyngeal epithelial cells (human); assay: 2,600 fluospheres/well on Detroit 562 cells, day 1 after labeling

**Q.** Which % reduction in FU [1] does the source give for “P4 peptide (PsaA amino acid residues 251 to 278 with DD changed to KR)” here?
**A.** 68%

**Q.** And the adherence signal (FU) [2]?
**A.** > 100000 FU

**Q.** And the adherence (mean FU) [3]?
**A.** 19300 FU

**Q.** What about the percent reduction in adherence [4] of the same substance?
**A.** 89.4% and 87.6% and 88.9%

**Q.** What about the % reduction in FU [5] of the same substance?
**A.** 23%

**Q.** What about the percent reduction in adherence [6] of the same substance?
**A.** 89.4% and 87.6% and 88.9%

**Q.** What does the source list for “recombinant pneumococcal surface adhesin A (rPsaA) of Streptococcus pneumoniae (from UniProt P0A4G2 20-309) (ligand)”?
**A.** mean adherence signal (FU) [7]: 16600 FU; mean adherence signal (FU) [8]: 2320 FU; adherence signal (FU) [2]: > 100000 FU; % inhibition of adherence of PsaA-coated fluospheres [9]: < 31%; fold enhancement of binding by P3 peptide [10]: < 2.5 fold; mean adherence signal (FU) [11]: 17500 FU; mean adherence (FU) [12]: 30600 FU; mean adherence (FU) [13]: 30100 FU
